Results published in patent publication US20160347843A1 (UNIVERSITY OF MASSACHUSETTS, published 2016).

T1: GST-1C (glutathione S-transferase fused upstream of the sFlt1-1-specific C-terminal peptide) (human, not fully specified)
T1 construct: Bacterially expressed screening antigen coated on ELISA plates; not shown: N-terminal glutathione S-transferase (GST) fusion partner
T1 chain: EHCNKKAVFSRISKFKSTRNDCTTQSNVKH

T2: TRX-Exon14 (thioredoxin with 6-histidine tag fused upstream of the sFlt1-14-specific peptide) (human)
T2 construct: Bacterially expressed screening antigen coated on ELISA plates; not shown: N-terminal thioredoxin (TRX) with 6-histidine tag from pET32a(+)
T2 chain: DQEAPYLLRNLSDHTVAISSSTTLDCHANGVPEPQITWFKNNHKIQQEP

B1: mouse mAb 1C-KLH-18 (antibody, V domains shown)
VH: EVQLQQSGAELVRPGASVKLSCTASGVNIKDDYMNWVNQRPEQGLEWIGWIDPENGDTEYASKFQGKATITADTSSNTAYLQLSSLTSEDTAVYYCAAGYDYFPFVYWGQGTLVAVSA
VL: DVLMSQTPLSLPVSLGDQASISCRSSQNIVHSNGNTYLEWYLQKPGQSPKLLIHKVSNRFSGVPDRFSGSGSGTDFTLKISRVEAEDLGVYYCFQGSHVPFTFGSGTKLEKK
notes: Murine hybridoma mAb with a kappa light chain (VK); It was used as hybridoma supernatant or Protein A purified mAb; also called sFlt1-specific mAb; sFlt1-1-specific mAb
B2: mouse mAb EX14-1 (antibody, V domains shown)
VH: QIQLVQSGPELKKPGETVKISCTTSGYIFTTSGMSWVKQAPGKGLQWMGWINTYSGEPTYADDFKGRFAFSLETSASTAYLHINDLKNEDTATYFCARSRNNYEGFAYWGQGTLVTVSV
VL: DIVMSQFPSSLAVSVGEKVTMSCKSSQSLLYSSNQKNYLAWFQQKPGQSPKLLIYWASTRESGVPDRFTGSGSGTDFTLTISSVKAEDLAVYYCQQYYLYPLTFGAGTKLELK
notes: Murine hybridoma mAb with a kappa light chain (VK); also called sFlt1-14-specific mAb

Experiments:
[1] = biological target: T3, recombinant human sFlt1-14 with C-terminal 6-histidine tag, expressed in CHO cells (human, UniProt P17948 27-705); assay: western blot, reducing SDS-PAGE, nitrocellulose, probed with 1C-KLH-18, HRP anti-mouse secondary
T3 construct: also called sFlt1_v2; sFlt1-e15a
T3 sequence (P17948 other isoform, or with tags, fused parts or gaps): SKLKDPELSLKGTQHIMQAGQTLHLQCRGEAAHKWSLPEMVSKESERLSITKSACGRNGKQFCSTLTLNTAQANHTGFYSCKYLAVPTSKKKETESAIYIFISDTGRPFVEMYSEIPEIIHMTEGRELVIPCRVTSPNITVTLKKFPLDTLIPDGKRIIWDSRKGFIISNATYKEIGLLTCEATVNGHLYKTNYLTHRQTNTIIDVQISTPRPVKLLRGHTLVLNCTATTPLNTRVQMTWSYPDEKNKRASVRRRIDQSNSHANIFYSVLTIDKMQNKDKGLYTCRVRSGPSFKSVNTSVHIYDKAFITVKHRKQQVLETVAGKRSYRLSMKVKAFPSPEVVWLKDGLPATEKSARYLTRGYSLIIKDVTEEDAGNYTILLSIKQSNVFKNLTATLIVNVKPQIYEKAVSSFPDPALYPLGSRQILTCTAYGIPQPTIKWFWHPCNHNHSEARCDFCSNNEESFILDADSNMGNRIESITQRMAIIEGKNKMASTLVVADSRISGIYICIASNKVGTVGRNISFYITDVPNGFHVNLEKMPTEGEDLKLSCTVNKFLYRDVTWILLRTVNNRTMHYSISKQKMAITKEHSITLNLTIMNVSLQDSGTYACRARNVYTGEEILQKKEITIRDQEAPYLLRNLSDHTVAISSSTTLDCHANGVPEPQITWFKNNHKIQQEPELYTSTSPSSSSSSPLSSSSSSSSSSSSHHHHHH
Procedure: Specificity of mAbs to sFIt1-14 and SFIt1-1 was investigated by western blot analysis on human amniotic fluid (FIG. 3). […] As standards, human recombinant sFlt1-1 or sFlt1-14 was loaded in final quantities of 200, 100 and 50 ng. After electrophoresis and transfer to nitrocellulose membranes, blots were blocked in 5% BSA and probed with EX14-1 (FIG. 3A), 1C-KLH-18 (FIG. 3B) or a commercially available mouse anti-VEGFR1 mAb (FIG. 3C) that recognized a single protein in amniotic fluid at the expected molecular weight (˜115 kDa) that corresponds to recombinant human sFlt1-14 and sFlt1-1, respectively. After washing, an HRP-labeled anti-mouse secondary antibody was used to detect bound mAb, developed and visualized using a Kodak Gel Logic imaging system. In addition, both mouse mAbs specifically recognized their recombinant sFlt1 isoform standards by western blot.

[2] = biological target: T4, recombinant human sFlt1-1 with C-terminal 6-histidine tag, expressed in CHO cells (human, UniProt P17948 27-656); assay: Octet QK (BLI), mAb captured on anti-murine biosensor, recombinant sFlt in solution
T4 construct: also called sFlt1_v1; sFlt1-i13
T4 sequence (P17948 other isoform, or with tags, fused parts or gaps): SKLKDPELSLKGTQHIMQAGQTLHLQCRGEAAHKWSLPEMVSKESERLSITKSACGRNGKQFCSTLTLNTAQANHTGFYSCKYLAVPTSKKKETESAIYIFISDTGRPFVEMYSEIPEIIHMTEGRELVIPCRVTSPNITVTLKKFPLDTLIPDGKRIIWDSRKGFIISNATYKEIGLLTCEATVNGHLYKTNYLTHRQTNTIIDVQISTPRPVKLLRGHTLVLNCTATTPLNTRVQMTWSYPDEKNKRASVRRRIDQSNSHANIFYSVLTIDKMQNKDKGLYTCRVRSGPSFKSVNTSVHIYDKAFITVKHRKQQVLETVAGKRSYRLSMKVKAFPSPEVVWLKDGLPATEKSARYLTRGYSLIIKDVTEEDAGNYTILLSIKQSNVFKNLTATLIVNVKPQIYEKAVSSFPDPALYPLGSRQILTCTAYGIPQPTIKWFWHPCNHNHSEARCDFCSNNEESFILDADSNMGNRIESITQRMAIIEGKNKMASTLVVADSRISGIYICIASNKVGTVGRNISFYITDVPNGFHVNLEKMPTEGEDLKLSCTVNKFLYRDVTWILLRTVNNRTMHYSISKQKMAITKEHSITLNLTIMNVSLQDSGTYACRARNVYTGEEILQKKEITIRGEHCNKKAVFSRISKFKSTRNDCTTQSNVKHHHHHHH
Procedure: (§1) Affinity of antibodies was determined using an Octet QK (ForteBio) biomolecular interaction instrument. The Octet QK performs similarly to Biacore in the measurement of antibody affinity. The Octet QK uses biosensors to assess mass increases/decreases and determine rates of association and disassociation. Anti-murine or anti-human biosensors (ForteBio) were used to capture mAb in PBS (5 ug/ml) to saturation and unbound mAb was washed away. The coated biosensors were introduced into a solution containing recombinant human sFlt1-1 or sFlt1-14 at which time Kₒₙ was determined. The sensor was then introduced into a buffer solution and the Koff determined. Using Kₒₙ and Koff an affinity (KD) was calculated.

[3] = biological target: T1, GST-1C (glutathione S-transferase fused …); assay: ELISA of hybridoma cultures on coated GST-1C
Procedure: (§2) To determine reactivity of unique antibodies with sFlt1-1 and sFlt1-14, ELISA was employed. As described above, TRX-Exon14 and GST-1C peptides were expressed and purified from bacteria. ELISA plates were coated with either GST-1C (FIG. 2A) or TRX-Exon14 (FIG. 2B), blocked with BSA and a series of dilutions of each hybridoma supernatant containing mAb was incubated on the coated plates. Bound antibody was detected with anti-mouse alkaline phosphatase secondary antibody and the interaction developed with PNPP. Plates were read using a Molecular Devices Emax plate reader and antibodies with the desired specificity and highest affinity were selected for final ELISA production. These included mouse mAbs EX14-1 to detect sFlt1-14 and 1C-KLH-18 to detect sFlt1. […] A human anti sFLT antibody with properties described above (under Quantitative Capture ELISA) was also used to minimize background in the ELISAs.
(§3) To determine reactivity of unique antibodies with sFlt1-1. sFlt1-14, TRX-Exon14 (SEQ ID NO. 40) and GST-1C (SEQ ID NO. 38) isoforms, ELISA plates were coated with either GST-1C or TRX-Exon14, blocked with BSA and a series of dilutions of each hybridoma supernatant containing mAb (or purified mAb) was incubated on the coated plates. Bound antibody was detected with anti-mouse alkaline phosphatase secondary antibody (Jackson ImmunoResearch) and the interaction developed with pNPP. […]

[4] = biological target: T3, recombinant human sFlt1-14 with …; assay: Octet QK (BLI), mAb captured on anti-murine biosensor, recombinant sFlt in solution
Procedure: as §1

[5] = biological target: T2, TRX-Exon14 (thioredoxin with …); assay: ELISA of hybridoma cultures on coated TRX-Exon14
Procedure: as §2, §3

[6] = biological target: T1, GST-1C (glutathione S-transferase fused …); assay: direct ELISA, plate coated with GST-1C, anti-mouse alkaline phosphatase and pNPP, OD405
Procedure: as §2, §3

[7] = biological target: T4, recombinant human sFlt1-1 with …; assay: capture ELISA (human anti-sFlt capture, mouse mAb detection)
Description: To measure the concentration of total sFlt and its isoforms, sFlt1-1 and sFlt1-14, in biological fluid, a capture ELISA was developed. Using an anti-sFlt human antibody to capture total sFlt and mouse antibodies 10 ugR#9, EX14-1 or 1C-KLH-18 to detect bound sFlt, allows the efficient capture of sFlt in biological fluid without high background or interference (FIG. 4). […] The sFlt1-specific mAb, 1C-KLH-18, detects recombinant human sFlt1-1, but not sFlt1-14 (FIG. 4A,B). Conversely, the sFlt1-14-specific mAb, EX14-1, detects recombinant human sFlt1-14, but not sFlt1-1 (FIG. 4A,B). In addition, each mAb detects a protein in human amniotic fluid (known from the literature to contain both sFlt isoforms; FIG. 4C) and no background is observed in normal human sera, which should contain very low levels of sFlt isoforms (FIG. 4D).
A capture ELISA format was utilized to quantify the total sFlt, sFlt1-1 or sFlt1-14 concentration in solution. Briefly, high-binding ELISA plates (Costar) were coated with 1 ug/ml of an anti-sFlt human antibody overnight at 4° C. This anti-sFlt antibody was selected to provide a capture reagent that bound both sFlt1-1 and sFlt1-14 at an epitope in their homologous regions without interfering with the availability of the epitopes bound by the antibodies of the present disclosure. […]

| Binder | binding result [1] | Kd [2] [nM] | binding result [3] | Kd [4] [nM] | binding result [5] | binding result [6] | binding result [7] |
| --- | --- | --- | --- | --- | --- | --- | --- |
| B1 | no binding (tested: 200 ng per lane) | 4.3 | binds | – | – | – | – |
| B2 | – | – | – | 39.5 | binds | no binding | no binding |
